Reference: article PMC7712654 (2020)

Target: T1, CTI2 (Arabidopsis thaliana, UniProt Q9M8T2)
T1 chain: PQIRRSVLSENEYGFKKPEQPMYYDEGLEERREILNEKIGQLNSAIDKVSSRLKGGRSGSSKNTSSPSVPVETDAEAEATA
Assay: MST

Kd: 1400 nM
B1: alphaCT (protein)
chain: INMKKREAVFSDSRKLQGEVDKLKEQILKAKETSTEAEPSSEVLNEMIEKLKSEIDDEYTEAAIAVGLEERLTAMREEFSKASSEEHLMHPVLIEKIEKLKEEFNTRLTDAPNYESLKSKLNMLRDFSRAKAASEATSLKKEINKRFQEAVDRPEIREKVEAIKAEVASSGASSFDELPDALKEKVLKTKGEVEAEMAGVLKSMGLELDAVKQNQKDTAEQIYAANENLQEKLEKLNQEITSKIEEVVRTPEIKSMVELLKVETAKASKTPGVTEAYQKIEALEQQIKQKIAEALNTSGLQEKQDELEKELAAARELAAEESDGSVKEDDDDDEDSSESGKSEMVNPSFA
